Target: Recombinant hACE2 protein fused with mFc, residues 19-740 (human) (UniProt Q9BYF1)
Assay: SPR

Chain of UniProt Q9BYF1 (Q9BYF1 19-740): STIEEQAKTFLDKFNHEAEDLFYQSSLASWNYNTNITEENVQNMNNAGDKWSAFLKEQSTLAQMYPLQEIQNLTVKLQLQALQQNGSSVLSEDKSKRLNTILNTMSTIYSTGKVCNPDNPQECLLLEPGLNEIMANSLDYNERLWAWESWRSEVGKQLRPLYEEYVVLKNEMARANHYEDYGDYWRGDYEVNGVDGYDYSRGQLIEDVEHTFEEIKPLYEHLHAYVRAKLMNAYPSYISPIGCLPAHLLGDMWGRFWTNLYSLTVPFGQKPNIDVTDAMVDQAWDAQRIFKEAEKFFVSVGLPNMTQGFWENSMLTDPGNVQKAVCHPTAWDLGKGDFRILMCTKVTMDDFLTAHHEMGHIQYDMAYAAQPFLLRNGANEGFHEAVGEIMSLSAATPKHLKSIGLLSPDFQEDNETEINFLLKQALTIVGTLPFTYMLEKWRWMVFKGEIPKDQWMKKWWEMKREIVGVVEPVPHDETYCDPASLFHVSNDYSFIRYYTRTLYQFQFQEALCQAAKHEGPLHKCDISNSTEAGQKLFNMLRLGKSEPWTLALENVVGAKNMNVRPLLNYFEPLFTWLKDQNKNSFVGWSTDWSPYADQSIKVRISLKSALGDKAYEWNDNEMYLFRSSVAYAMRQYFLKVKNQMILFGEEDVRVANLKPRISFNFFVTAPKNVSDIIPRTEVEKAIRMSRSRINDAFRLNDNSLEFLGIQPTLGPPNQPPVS

Recombinant RsYN04 RBD protein, residues 309-527 (domain or fragment)
Kd: 15.9 µM

From paper PMC8188299
